Data reported in publication PMC3416856.

Target: T1, KaiC of unphosphorylated initial condition (Synechococcus elongatus) (UniProt Q79PF4)
T1 sequence (chain, unphosphorylated at the start of the incubation): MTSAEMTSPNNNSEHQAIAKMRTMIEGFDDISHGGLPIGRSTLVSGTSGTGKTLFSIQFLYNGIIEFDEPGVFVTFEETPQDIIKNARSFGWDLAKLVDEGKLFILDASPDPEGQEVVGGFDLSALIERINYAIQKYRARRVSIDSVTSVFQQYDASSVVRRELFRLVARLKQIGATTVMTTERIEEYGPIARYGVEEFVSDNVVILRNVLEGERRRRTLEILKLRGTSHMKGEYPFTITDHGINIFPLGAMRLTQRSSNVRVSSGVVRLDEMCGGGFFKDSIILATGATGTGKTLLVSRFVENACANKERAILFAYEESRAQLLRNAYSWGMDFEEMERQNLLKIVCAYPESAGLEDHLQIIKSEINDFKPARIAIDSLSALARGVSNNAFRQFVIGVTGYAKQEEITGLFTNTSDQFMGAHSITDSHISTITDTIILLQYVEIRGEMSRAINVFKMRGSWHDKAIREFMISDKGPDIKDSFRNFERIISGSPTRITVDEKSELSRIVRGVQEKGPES

half-maximum concentration of KaiA for the phosphorylation of KaiC (3.5 µM) at 16 hr, 30°C (SDS-PAGE densitometry, sigmoid fit), against that for the highly phosphorylated initial condition: 5 fold
B1: wild type KaiA (natural protein)
chain: MLSQIAICIWVESTAILQDCQRALSADRYQLQVCESGEMLLEYAQTHRDQIDCLILVAANPSFRAVVQQLCFEGVVVPAIVVGDRDSEDPDEPAKEQLYHSAELHLGIHQLEQLPYQVDAALAEFLRLAPVETMADHIMLMGANHDPELSSQQRDLAQRLQERLGYLGVYYKRDPDRFLRNLPAYESQKLHQAMQTSYREIVLSYFSPNSNLNQSIDNFVNMAFFADVPVTKVVEIHMELMDEFAKKLRVEGRSEDILLDYRLTLIDVIAHLCEMYRRSIPRET
